Source: patent US20200399318A1, “PEPTIDE INHIBITORS OF PHOSPHOGLYCERATE MUTASE AND METHODS OF USE” (priority 2016, published 2020)
“And” between values parts separate entries of the source, which are not always exact repeats. Equal entries are not always repeated. Where two headings read alike, the source gives them in different places.

B1: Ce-1 (ipglycermide A) (peptide)
peptide: YDYPGDHCYLYGTCG
modifications: not checked
B2: Ce-2 (ipglycermide B) (peptide)
peptide: YDYPGDYCYLYGTCG
modifications: not checked
B3: Ce-2d (peptide)
peptide: YDYPGDYCYLY
modifications: not checked

Columns and labels:
O. volvulus iPGM = O. volvulus iPGM (Onchocerca volvulus, UniProt I6LDA6); assay: biochemical
B. malayi iPGM = B. malayi iPGM (Brugia malayi, UniProt Q4VWF8); assay: biochemical
[1] = system: iPGM orthologs and dPGM isozymes; format: biochemical
E. coli iPGM = E. coli iPGM (Escherichia coli, UniProt P37689); assay: biochemical
Sequence of E. coli iPGM (P37689 whole entry, looked up): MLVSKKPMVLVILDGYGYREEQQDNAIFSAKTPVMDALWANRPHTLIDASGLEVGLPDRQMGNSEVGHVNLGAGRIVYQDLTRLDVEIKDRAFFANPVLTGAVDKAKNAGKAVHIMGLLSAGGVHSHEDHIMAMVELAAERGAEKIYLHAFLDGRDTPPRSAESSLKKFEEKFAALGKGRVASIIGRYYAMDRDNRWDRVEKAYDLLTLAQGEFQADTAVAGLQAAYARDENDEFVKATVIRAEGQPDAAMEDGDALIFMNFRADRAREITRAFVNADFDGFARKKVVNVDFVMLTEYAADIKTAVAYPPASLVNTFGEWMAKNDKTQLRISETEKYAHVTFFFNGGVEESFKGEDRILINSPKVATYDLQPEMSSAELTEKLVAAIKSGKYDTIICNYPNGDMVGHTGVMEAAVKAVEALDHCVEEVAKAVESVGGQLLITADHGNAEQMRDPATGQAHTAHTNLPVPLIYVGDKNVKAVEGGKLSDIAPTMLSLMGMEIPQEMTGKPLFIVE

D. immitis iPGM = format: biochemical, Dirofilaria immitis
[2] = biological target: T1, O. volvulus cofactor-independent phosphoglycerate mutase (iPGM) (Onchocerca volvulus), I6LDA6; assay: cell-based or functional assay
T1 chain: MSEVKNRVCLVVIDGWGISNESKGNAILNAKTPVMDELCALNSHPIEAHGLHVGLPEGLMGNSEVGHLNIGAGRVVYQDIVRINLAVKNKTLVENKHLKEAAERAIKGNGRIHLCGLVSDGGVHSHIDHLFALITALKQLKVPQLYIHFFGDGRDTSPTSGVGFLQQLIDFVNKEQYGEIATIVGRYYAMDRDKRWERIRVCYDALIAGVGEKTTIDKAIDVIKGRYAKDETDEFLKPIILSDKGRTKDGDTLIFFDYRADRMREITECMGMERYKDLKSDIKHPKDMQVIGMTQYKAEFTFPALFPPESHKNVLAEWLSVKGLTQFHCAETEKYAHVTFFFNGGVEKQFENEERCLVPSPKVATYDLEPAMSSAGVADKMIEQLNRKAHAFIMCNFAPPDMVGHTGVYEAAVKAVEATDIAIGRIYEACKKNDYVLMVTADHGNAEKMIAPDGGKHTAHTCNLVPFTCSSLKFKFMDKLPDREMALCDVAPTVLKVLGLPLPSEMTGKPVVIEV

[3] = biological target: T2, C. elegans cofactor-independent phosphoglycerate mutase (iPGM) (Caenorhabditis elegans), G5EFZ1; assay: cell-based or functional assay
T2 chain: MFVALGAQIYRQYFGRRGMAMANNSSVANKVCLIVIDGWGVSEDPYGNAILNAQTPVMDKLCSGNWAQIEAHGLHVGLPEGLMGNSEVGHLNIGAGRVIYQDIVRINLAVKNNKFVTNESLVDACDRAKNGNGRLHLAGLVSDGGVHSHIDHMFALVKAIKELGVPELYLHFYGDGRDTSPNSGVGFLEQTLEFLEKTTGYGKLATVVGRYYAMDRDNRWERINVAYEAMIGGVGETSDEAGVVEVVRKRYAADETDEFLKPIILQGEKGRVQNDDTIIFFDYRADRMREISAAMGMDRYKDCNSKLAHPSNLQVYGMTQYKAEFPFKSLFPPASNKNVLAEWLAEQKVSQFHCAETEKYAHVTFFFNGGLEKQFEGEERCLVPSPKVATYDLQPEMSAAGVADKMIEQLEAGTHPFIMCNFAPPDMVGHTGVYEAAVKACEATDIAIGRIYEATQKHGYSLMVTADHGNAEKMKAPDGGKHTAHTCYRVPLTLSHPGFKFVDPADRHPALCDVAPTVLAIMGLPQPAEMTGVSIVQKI

iPGM orthologues = assay: cell-based or functional assay
[4] = biological target: T3, E. coli cofactor-dependent phosphoglycerate mutase (dPGM) (Escherichia coli), P62707; assay: cell-based or functional assay
T3 chain: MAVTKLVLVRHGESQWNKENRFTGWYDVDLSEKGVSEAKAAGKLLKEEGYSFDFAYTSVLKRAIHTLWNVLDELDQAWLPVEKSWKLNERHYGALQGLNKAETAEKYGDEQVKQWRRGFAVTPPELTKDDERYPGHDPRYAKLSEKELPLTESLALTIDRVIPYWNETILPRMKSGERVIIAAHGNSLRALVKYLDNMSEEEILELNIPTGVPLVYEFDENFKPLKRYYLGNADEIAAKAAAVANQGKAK

[5] = biological target: T1, O. volvulus cofactor-independent …; assay: cell-based or functional assay
[6] = biological target: T4, B. malayi cofactor-independent phosphoglycerate mutase (iPGM) (Brugia malayi), Q4VWF8; assay: cell-based or functional assay
T4 chain: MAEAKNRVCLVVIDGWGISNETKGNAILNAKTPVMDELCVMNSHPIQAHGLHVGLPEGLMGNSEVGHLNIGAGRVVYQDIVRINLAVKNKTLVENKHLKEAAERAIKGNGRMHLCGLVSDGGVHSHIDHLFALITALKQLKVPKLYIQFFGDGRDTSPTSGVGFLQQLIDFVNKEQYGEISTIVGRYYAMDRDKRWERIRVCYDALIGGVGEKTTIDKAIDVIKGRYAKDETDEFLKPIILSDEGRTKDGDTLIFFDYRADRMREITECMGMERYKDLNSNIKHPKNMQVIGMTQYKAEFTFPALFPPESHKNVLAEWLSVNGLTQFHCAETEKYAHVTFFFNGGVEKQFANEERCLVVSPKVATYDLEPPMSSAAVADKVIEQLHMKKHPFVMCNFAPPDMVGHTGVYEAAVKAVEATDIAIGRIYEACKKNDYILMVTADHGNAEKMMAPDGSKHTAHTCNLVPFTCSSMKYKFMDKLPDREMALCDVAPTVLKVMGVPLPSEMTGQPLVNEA

[7] = biological target: T5, E. coli cofactor-independent phosphoglycerate mutase (iPGM) (Escherichia coli), P37689; assay: cell-based or functional assay
[8] = biological target: H. sapiens cofactor-dependent phosphoglycerate mutase (dPGM) (Homo sapiens), P18669; assay: cell-based or functional assay
[9] = biological target: T2, C. elegans cofactor-independent …; assay: cell-based or functional assay
[10] = biological target: T1, O. volvulus cofactor-independent …; assay: cell-based or functional assay
[11] = biological target: T4, B. malayi cofactor-independent …; assay: cell-based or functional assay
[12] = biological target: T5, E. coli cofactor-independent …; assay: cell-based or functional assay; remark: listed apart in the source
[13] = biological target: T2, C. elegans cofactor-independent …; assay: quadratic (stoichiometric binding) model fitted to concentration response curves of the coupled bioluminescent enzyme assay at several C. elegans iPGM concentrations (FIG. 10B)
[14] = read-out: O. volvulus iPGM Max Inhibition
[15] = read-out: B. malayi iPGM Max Inhibition
[16] = read-out: E. coli iPGM Max Inhibition

Row | Molecule | O. volvulus iPGM Max Inhibition (O. volvulus iPGM) | B. malayi iPGM Max Inhibition (B. malayi iPGM) | inhibitory activity on the iPGM orthologs [1] | E. coli iPGM Max Inhibition (E. coli iPGM) | D. immitis iPGM Max Inhibition (D. immitis iPGM) | Max Inhibition [3] | pIC50 [3] | inhibitory activity (endpoint profiling assays) (iPGM orthologues) [nM] | Max Inhibition [4] | Max Inhibition [5] | pIC50 [5] | Max Inhibition [6] | pIC50 [6] | Max Inhibition [7] | pIC50 [7] | Max Inhibition [8] | IC50 [9] | pIC50 [9] [pIC50] | IC50 [12] [nM] | pIC50 [12] [pIC50] | other results
1 | ^Ac-DYDYPGDYSYLY [Ce-L2d] | −15.7 ± 8.3 | −7.3 ± 2.0 | completely inactive | −21.1 ± 2.4 | −5.2 ± 4.9 | – | – | – | – | – | – | – | – | – | – | – | – | – | – | – | –
2 | CC(C)C[C@H](NC(=O)[C@H](Cc1ccc(O)cc1)NC(=O)[C@@H]1CSCC(=O)N[C@H](Cc2ccc(O)cc2)C(=O)N[C@@H](CC(=O)O)C(=O)N[C@@H](Cc2ccc(O)cc2)C(=O)N2CCC[C@H]2C(=O)NCC(=O)N[C@@H](CC(=O)O)C(=O)N[C@@H](Cc2ccc(O)cc2)C(=O)N1)C(=O)N[C@@H](Cc1ccc(O)cc1)C(=O)NCC(=O)N[C@H](C(=O)N[C@@H](CS)C(N)=O)[C@@H](C)O [Ce-2a] | – | – | subnanomolar potency | – | −100.1 ± 5.6 | – | – | – | – | – | – | – | – | – | – | – | – | – | – | – | O. volvulus iPGM PIC50, M (O. volvulus iPGM): 7.31 ± 0.09 M; pIC50 O. volvulus iPGM (O. volvulus iPGM): 9.68; Emax (O. volvulus iPGM; [14]): 97.7 ± 4.4%; inhibition at 0.0005 µM (O. volvulus iPGM; [14]): 97.5 ± 2.7%; B. malayi iPGM PIC50, M (B. malayi iPGM): 8.07 ± 0.10 M and 9.49 ± 0.08 M; Emax (B. malayi iPGM; [15]): 99.2 ± 5.3%; inhibition at 0.0005 µM (B. malayi iPGM; [15]): 100.3 ± 0.8%; E. coli iPGM PIC50, M (E. coli iPGM): 8.51 ± 0.14 M and 9.58 ± 0.02 M; Emax (E. coli iPGM; [16]): 99.2 ± 8.5%; inhibition at 0.0005 µM (E. coli iPGM; [16]): 84.1 ± 9.5%; D. immitis iPGM PIC50, M (D. immitis iPGM): 9.68 ± 0.09 M; D. immitis iPGM Max Inhibition (D. immitis iPGM; 0.0005 µM): −92.5 ± 4.0
3 | ^Ac-DYLYGTCG [Ce-2tail] | −11.6 ± 5.3 | −10.2 ± 3.3 | – | −21.1 ± 2.7 | −1.9 ± 10.3 | – | – | – | – | – | – | – | – | – | – | – | – | – | – | – | activity on all PGMs [1]: inactive
4 | B1 | – | – | – | – | – | -95.8 | 8.4 pIC50 (M) | 2 to 20 | 5 | -95.4 | 7.61 pIC50 (M) | -94 | 7.92 pIC50 (M) | -96.5 | 8.38 pIC50 (M) | 4 | – | – | – | – | pIC50 [2]: 7.62 pIC50
5 | B2 | – | – | – | – | – | -100 | 8.65 pIC50 (M) | 2 to 20 | -5.9 | -98.2 | 7.72 pIC50 (M) | -98.8 | 8.27 pIC50 (M) | -102 | 8.78 pIC50 (M) | -0.3 | 2.3 nM and 2.34 nM | 8.63 | 0.23 | 9.64 | IC50 [10]: 23 nM and 23.5 nM; pIC50 [10]: 7.63 pIC50; IC50 [11]: 17 nM and 16.8 nM; pIC50 [11]: 7.78 pIC50; Kd [13]: 0.073 nM; Max Inhibition (* iPGM 500 pM) [3]: -101; pEC50 (GEMBE) [3]: 8.36 pEC50; pIC50 (* iPGM 500 pM) [3]: 9.6 pIC50 (M); Max Inhibition (* series) [4]: 2.7; fold enhancement in affinity against linear Ce-L2 (from IC50s) [5]: 10000 fold; pEC50 (GEMBE) [6]: 8.37 pEC50; fold enhancement in affinity against linear Ce-L2 (from IC50s) [7]: 2000 fold; pEC50 (GEMBE) [7]: 8.49 pEC50; Max Inhibition (* series) [8]: 1.9
6 | B3 | – | – | – | – | – | -103 | 8.56 pIC50 (M) | – | -6.3 | – | – | – | – | -102 | 8.71 pIC50 (M) | -1.2 | 3.9 nM and 3.88 nM | 8.41 | 0.77 | 9.12 | Max Inhibition (* iPGM 500 pM) [3]: -100; pEC50 (GEMBE) [3]: 8.49 pEC50; pIC50 (* iPGM 500 pM) [3]: 9.03 pIC50 (M); Max Inhibition (* series) [4]: 2.3; pEC50 (GEMBE) [7]: 8.5 pEC50; Max Inhibition (* series) [8]: 7.9
